Test results published in IntAct's records for PubMed 11447112.

Molecular target: gapa_dicdi gapA (UniProt O00899)
Sequence (O00899 whole entry): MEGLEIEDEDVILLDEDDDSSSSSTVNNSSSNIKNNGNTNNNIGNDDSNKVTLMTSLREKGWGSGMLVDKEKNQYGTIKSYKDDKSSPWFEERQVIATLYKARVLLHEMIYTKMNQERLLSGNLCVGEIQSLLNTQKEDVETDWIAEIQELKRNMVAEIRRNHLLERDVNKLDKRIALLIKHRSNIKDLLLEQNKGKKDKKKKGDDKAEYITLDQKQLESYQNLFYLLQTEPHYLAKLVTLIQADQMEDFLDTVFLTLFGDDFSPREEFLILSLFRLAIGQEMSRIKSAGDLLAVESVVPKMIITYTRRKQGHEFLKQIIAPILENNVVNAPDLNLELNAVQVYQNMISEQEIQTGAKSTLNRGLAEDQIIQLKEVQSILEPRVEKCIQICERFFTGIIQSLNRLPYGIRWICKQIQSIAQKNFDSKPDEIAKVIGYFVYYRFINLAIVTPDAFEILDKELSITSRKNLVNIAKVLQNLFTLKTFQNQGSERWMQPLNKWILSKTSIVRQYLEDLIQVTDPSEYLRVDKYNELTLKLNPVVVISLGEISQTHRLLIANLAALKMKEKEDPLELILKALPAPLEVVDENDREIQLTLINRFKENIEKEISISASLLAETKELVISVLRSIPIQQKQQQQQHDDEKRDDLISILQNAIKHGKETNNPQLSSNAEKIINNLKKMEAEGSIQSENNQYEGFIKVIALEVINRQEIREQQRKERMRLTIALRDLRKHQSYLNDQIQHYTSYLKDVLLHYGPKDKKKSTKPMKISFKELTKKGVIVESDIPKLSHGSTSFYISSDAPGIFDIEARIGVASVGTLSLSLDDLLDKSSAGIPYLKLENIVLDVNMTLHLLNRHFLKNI

effect of a mutation on the interaction: disrupting interaction
Substance: Rho-related protein rac1A (Dictyostelium discoideum (Slime mold)), P34144 G12N
